Patent US20230407298A1 (Johns Hopkins, published 2023)

Target: T1, XPO1 (human, UniProt O14980 1-1071)
T1 construct: Endogenous protein pulled down from iPSN nuclear lysates with mouse anti-XPO1 (Santa Cruz sc-74454) coupled to Protein G beads; also called CRM1; XPO1/CRM1
Experiment: co-immunoprecipitation with anti-XPO1 from iPSN nuclear lysates, western blot
Method: Nuclei were isolated from iPSNs as described above. The resulting nuclei pellet was lysed in 1 mL IP buffer by vortexing for 30-45 seconds. Nuclei lysates were centrifuged for 10 minutes at 2500 rpm and 4° C. to remove debris. Following centrifugation, the supernatant was transferred to a clean Eppendorf tube. 25 μL of the supernatant was added to μL 2× Laemmli buffer (BioRad) and set aside as protein input and an additional 25 μL supernatant was set aside on ice as RNA input. The remainder of the lysate was split equally between IgG and XPO1 antibody conjugated bead tubes. Lysates were incubated with beads with end over end rotation for 2 hours at 4° C. The unbound supernatant was discarded and immunoprecipitated complexes were washed 3×5 minutes in 200 μL IP buffer with end over end rotation at 4° C. Bead-IP complexes were resuspended in 200 μL IP buffer. 100 μL of each bead-IP complex sample was set aside for RNA analysis. For the remaining 100 μL, the supernatant was discarded and 50 μL 1× Laemmli buffer was added to bead-IP complexes. All RNA samples (including input) were added to 500 μL RLT Buffer (QIAGEN) and RNA isolation, cDNA synthesis, and qRT-PCR were performed as described below. Protein samples were analyzed by western blot as described below. Equal volumes of each sample (10 μL) were loaded in acrylamide gels. […]

T1 sequence (O14980 whole entry): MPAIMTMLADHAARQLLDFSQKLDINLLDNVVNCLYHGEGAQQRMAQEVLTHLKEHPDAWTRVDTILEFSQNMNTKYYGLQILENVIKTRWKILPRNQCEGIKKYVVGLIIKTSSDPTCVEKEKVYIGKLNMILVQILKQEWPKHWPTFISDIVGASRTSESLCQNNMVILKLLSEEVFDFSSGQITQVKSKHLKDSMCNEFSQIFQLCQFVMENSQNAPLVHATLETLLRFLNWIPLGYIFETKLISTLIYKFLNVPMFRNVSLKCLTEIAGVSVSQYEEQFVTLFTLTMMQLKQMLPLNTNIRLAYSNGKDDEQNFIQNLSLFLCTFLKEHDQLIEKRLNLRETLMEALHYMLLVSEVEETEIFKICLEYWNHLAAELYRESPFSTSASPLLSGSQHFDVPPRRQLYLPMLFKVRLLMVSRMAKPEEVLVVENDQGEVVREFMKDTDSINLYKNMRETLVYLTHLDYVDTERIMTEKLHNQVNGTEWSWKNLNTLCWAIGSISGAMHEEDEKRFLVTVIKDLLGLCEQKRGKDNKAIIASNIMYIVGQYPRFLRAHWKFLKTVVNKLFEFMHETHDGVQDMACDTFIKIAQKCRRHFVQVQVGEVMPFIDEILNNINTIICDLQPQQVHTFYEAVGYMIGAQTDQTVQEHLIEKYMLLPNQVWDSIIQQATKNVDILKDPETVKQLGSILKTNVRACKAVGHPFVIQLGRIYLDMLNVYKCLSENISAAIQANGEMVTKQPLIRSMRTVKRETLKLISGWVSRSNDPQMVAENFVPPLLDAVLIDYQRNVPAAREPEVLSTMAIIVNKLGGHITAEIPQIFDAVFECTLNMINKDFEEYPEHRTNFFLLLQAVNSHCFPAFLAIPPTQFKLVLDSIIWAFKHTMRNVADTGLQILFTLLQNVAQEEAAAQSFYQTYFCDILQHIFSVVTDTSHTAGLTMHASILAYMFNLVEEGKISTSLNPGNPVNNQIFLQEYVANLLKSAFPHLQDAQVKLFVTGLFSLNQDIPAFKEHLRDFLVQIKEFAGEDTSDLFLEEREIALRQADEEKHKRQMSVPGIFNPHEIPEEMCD

Row | Binder | binding result
1 | LEMD2 (other, human, UniProt Q8NC56 2-503, looked up, Absent from XPO1 immunoprecipitates by western blot; also called LEM2) AGLSDLELRRELQALGFQPGPITDTTRDVYRNKLRRLRGEARLRDEERLREEARPRGEERLREEARLREDAPLRARPAAASPRAEPWLSQPASGSAYATPGAYGDIRPSAASWVGSRGLAYPARPAQLRRRASVRGSSEEDEDARTPDRATQGPGLAARRWWAASPAPARLPSSLLGPDPRPGLRATRAGPAGAARARPEVGRRLERWLSRLLLWASLGLLLVFLGILWVKMGKPSAPQEAEDNMKLLPVDCERKTDEFCQAKQKAALLELLHELYNFLAIQAGNFECGNPENLKSKCIPVMEAQEYIANVTSSSSAKFEAALTWILSSNKDVGIWLKGEDQSELVTTVDKVVCLESAHPRMGVGCRLSRALLTAVTNVLIFFWCLAFLWGLLILLKYRWRKLEEEEQAMYEMVKKIIDVVQDHYVDWEQDMERYPYVGILHVRDSLIPPQSRRRMKRVWDRAVEFLASNESRIQTESHRVAGEDMLVWRWTKPSSFSDSER | no binding
2 | Lamin B1 (other, human, UniProt P20700 2-583, looked up, Absent from XPO1 immunoprecipitates by western blot) ATATPVPPRMGSRAGGPTTPLSPTRLSRLQEKEELRELNDRLAVYIDKVRSLETENSALQLQVTEREEVRGRELTGLKALYETELADARRALDDTARERAKLQIELGKCKAEHDQLLLNYAKKESDLNGAQIKLREYEAALNSKDAALATALGDKKSLEGDLEDLKDQIAQLEASLAAAKKQLADETLLKVDLENRCQSLTEDLEFRKSMYEEEINETRRKHETRLVEVDSGRQIEYEYKLAQALHEMREQHDAQVRLYKEELEQTYHAKLENARLSSEMNTSTVNSAREELMESRMRIESLSSQLSNLQKESRACLERIQELEDLLAKEKDNSRRMLTDKEREMAEIRDQMQQQLNDYEQLLDVKLALDMEISAYRKLLEGEEERLKLSPSPSSRVTVSRASSSRSVRTTRGKRKRVDVEESEASSSVSISHSASATGNVCIEEIDVDGKFIRLKNTSEQDQPMGGWEMIRKIGDTSVSYKYTSRYVLKAGQTVTIWAANAGVTASPPTDLIWKNQNSWGTGEDVKVILKNSQGEEVAQRSTVFKTTIPEEEEEEEEAAGVVVEEELFHQQGTPRASNRSC | no binding
